Assay results reported in article PMC7522082, “A simple procedure for bacterial expression and purification of the fragile X protein family”.

Legend:
[1] = biological target: T1, His6-MBP-FXR2P P474S and P493N (Homo sapiens, UniProt P51116 1-673, P474S;P493N); test: fluorescence anisotropy; 75 mM K+, 5 mM Mg2+; FA: 20 mM Tris pH 7.5, 75 mM KCl, 5 mM MgCl2, 1 uM BSA, 1 mM DTT, 100 ng/uL tRNA, ~5 nM RNA, RT 1 h; EMSA: 50 mM Tris pH 7.5, 145 mM KCl, 5 mM MgCl2, 1 uM BSA; conditions: protein: recombinant; tags: N-terminal His6-MBP; label: 3' fluorescein; G-quadruplex forming
T1 sequence (P51116 whole entry P474S/P493N): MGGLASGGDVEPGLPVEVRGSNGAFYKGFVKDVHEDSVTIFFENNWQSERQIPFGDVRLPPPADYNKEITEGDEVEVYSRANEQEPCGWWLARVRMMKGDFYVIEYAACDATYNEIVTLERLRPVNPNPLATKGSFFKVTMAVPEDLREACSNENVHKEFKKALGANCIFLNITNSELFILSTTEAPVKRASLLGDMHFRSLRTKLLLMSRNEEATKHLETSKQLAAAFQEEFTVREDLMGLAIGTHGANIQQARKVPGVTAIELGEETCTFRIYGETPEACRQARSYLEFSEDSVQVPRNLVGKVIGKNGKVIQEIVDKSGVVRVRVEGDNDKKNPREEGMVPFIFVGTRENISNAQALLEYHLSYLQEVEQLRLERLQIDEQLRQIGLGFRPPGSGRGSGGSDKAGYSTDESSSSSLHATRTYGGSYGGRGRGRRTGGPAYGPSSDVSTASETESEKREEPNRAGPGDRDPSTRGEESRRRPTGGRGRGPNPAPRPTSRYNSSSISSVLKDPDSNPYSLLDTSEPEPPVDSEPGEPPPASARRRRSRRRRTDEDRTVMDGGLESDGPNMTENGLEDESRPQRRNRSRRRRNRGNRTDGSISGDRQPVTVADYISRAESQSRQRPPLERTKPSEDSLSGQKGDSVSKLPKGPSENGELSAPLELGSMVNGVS

His6-MBP-FMRP P451S [2] = biological target: T2, His6-MBP-FMRP P451S (Homo sapiens, UniProt Q06787 1-632, P451S); test: as above
[3] = biological target: T1, His6-MBP-FXR2P P474S and P493N; test: EMSA; 250 nM protein; FA: 20 mM Tris pH 7.5, 75 mM KCl, 5 mM MgCl2, 1 uM BSA, 1 mM DTT, 100 ng/uL tRNA, ~5 nM RNA, RT 1 h; EMSA: 50 mM Tris pH 7.5, 145 mM KCl, 5 mM MgCl2, 1 uM BSA; conditions: protein: recombinant, tags: N-terminal His6-MBP
His6-MBP-FMRP P451S [4] = biological target: T2, His6-MBP-FMRP P451S; test: as above

B1: poly-G17U (structured_RNA)
RNA: GGGGGGGGGGGGGGGGGU
- Kd [1]: 3.1 ± 0.4 nM
- Kd (His6-MBP-FMRP P451S [2]): 5.6 nM

B2: CR1 (ssRNA)
RNA: GCUAUCCAGAUUCUGAUU
- binding result ([3]; label: 3' fluorescein, single strand, no predicted G-quadruplex): no binding
- binding result (His6-MBP-FMRP P451S [4]): no binding

B3: ΔKC2 (structured_RNA)
RNA: GGGCGAAUUCGGGAUUCCGACCAGAAGGGGCUAAGGAAUGGUGGGACGAGCUAGCGGCUGGUAUGUGCGUCU
- binding result ([3]; label: 3' fluorescein (FTSC, periodate-oxidized 3' end), loop-loop pseudoknot (kissing complex)): binds
- binding result (His6-MBP-FMRP P451S [4]): binds
